Test results published in IntAct's records for PubMed 20819940.

B1: High mobility group protein B1 (Rattus norvegicus (Rat)), P63159 (parent)
chain: MGKGDPKKPRGKMSSYAFFVQTCREEHKKKHPDASVNFSEFSKKCSERWKTMSAKEKGKFEDMAKADKARYEREMKTYIPPKGETKKKFKDPNAPKRPPSAFFLFCSEYRPKIKGEHPGLSIGDVAKKLGEMWNNTAADDKQPYEKKAAKLKEKYEKDIAAYRAKGKPDAAKKGVVKAEKSKKKKEEEDDEEDEEDEEEEEEEEDEDEEEDDDDE

Variants of: B1
Conditions: with becn1_mouse Becn1, O88597
Chain of becn1_mouse Becn1, O88597 (O88597 whole entry): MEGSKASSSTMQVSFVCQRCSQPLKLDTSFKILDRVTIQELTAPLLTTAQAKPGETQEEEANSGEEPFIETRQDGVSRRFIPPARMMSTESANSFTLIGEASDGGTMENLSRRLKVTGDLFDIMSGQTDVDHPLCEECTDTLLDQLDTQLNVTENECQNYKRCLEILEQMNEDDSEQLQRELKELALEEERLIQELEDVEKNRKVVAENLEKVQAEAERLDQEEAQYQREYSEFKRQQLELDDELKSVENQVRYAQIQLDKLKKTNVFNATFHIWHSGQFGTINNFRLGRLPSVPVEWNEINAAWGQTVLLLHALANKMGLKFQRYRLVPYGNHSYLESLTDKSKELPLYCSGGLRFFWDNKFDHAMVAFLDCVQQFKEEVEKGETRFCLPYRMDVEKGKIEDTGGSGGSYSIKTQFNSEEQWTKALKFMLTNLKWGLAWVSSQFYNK

| effect of a mutation on the interaction | Variant |
| --- | --- |
| disrupting interaction | MGKGDPKKPRGKMSSYAFFVQTSREEHKKKHPDASVNFSEFSKKCSERWKTMSAKEKGKFEDMAKADKARYEREMKTYIPPKGETKKKFKDPNAPKRPPSAFFLFCSEYRPKIKGEHPGLSIGDVAKKLGEMWNNTAADDKQPYEKKAAKLKEKYEKDIAAYRAKGKPDAAKKGVVKAEKSKKKKEEEDDEEDEEDEEEEEEEEDEDEEEDDDDE [C23S] |
| disrupting interaction | MGKGDPKKPRGKMSSYAFFVQTCREEHKKKHPDASVNFSEFSKKSSERWKTMSAKEKGKFEDMAKADKARYEREMKTYIPPKGETKKKFKDPNAPKRPPSAFFLFCSEYRPKIKGEHPGLSIGDVAKKLGEMWNNTAADDKQPYEKKAAKLKEKYEKDIAAYRAKGKPDAAKKGVVKAEKSKKKKEEEDDEEDEEDEEEEEEEEDEDEEEDDDDE [C45S] |
